Values of other authors as cited in patent publication US10822386B2, “Insulin analogues with enhanced stability and reduced mitogenicity” (CASE WESTERN RESERVE UNIVERSITY, priority 2014, dated 2020).

Assays:
[1] = substitution of His^B10 by Asp, versus wild-type
[2] = target: insulin receptor (Homo sapiens, UniProt P06213); details: versus wild-type insulin
[3] = test system: isolated adipocytes
[4] = test system: neoplastic cell lines (including a cell line derived from a human breast cancer)
[5] = test system: Sprague-Dawley rats; details: chronic treatment, relative to wild-type insulin

## Asp^B10-insulin
[1]
  thermodynamic stability of the zinc-free insulin monomer: augment the thermodynamic stability
[2]
  affinity for the insulin receptor: enhances the affinity
[3]
  potency to stimulate lipogenesis: augments in parallel its potency
[4]
  mitogenicity in cell culture: increased mitogenicity
[5]
  incidence of mammary tumors: excess incidence of mammary tumors
